{"source": "patent US12564623B2", "about": "“Methods and compositions for treating cancer” (The University of Chicago, priority 2017, dated 2026)", "key": {"[1]": {"test_system": "E0771, B16F10, or LLC1 cancer cells", "experiment": "Tumor growth after intratumoral delivery, syngeneic models", "assay_type": "in vivo, C57BL/6 mice", "settings": "11.6 μg intratumorally once/day for 5 days", "protocol": "ELANE activity is required for its anti-tumor function in vivo. (FIG. 14A) Catalytic activity of ELANE or ELANE that had been inactivated by treatment with 100 nM PMSF (PMSF-ELANE) was determined by a chromogenic substrate. (FIG. 14B) E0771, B16F10, or LLC1 cancer cells were injected into C57BL/6 mice. Once tumors reached ˜100 mm^3, human serum albumin (HSA, 11.6 μg), ELANE (11.6 μg), or PMSF-ELANE (11.6 μg) were delivered intratumorally once/day for 5 days. Tumor volume was assessed by calipers."}, "tumors": {"test_system": "tumors", "experiment": "Tumor apoptosis markers and CD95 staining after intratumoral delivery", "assay_type": "in vivo, mice", "protocol": "(FIG. 16A) MDA-MB-231, A549, or MEL888 (xenograft model) cells were injected into athymic nude mice; M1 or 4195 tumors (TNBC PDX models) were propagated in SCID mice; and E0771, LLC1, or B16F10 cells (syngeneic models) were injected into C57BL/6 mice. Once tumors reached ˜100 mm^3, ELANE (11.6 μg), or PMSF-ELANE (11.6 μg) were delivered intratumorally once/day for 5 days. Tumors were isolated on day 6, formalin fixed, and examined by immunohistochemistry or immunofluorescence staining for TUNEL, cleaved-PARP (cPARP), and cleaved CASP3 (cCASP3). Images were taken under 40×. (FIG. 16B) Tumor sections were stained with N-terminal (N-CD95) and C-terminal (C-CD95) specific anti-CD95 antibodies, followed by secondary antibody staining (Alex fluor 488 and 594 for C-CD95 and N-CD95 respectively). Fluorescence intensity quantification was performed on 3-4 areas/mouse."}, "CD95 [2]": {"test_system": "CD95", "experiment": "CD95 immunoreactivity and ELANE uptake in non-cancer cells", "assay_type": "cell-based", "protocol": "Non-cancer cells were treated with ELANE (50 nM) for 1 hr, fixed in 10% formalin, and stained with N- or C-terminal specific anti-CD95 antibodies. Hoechst 33342 solution was used for nuclear staining. Images were taken under 40×. […] Non-cancer cells were treated with ELANE (100 nM) in the presence or absence of a broad endocytosis inhibitor Dynasore (80 μM) for 30 mins. ELANE catalytic activity in cell lysates was assessed using a chromogenic substrate assay."}, "CD95 [3]": {"molecular_target": "T1, CD95 (Homo sapiens, UniProt P25445)", "T1 sequence (P25445 26-335)": "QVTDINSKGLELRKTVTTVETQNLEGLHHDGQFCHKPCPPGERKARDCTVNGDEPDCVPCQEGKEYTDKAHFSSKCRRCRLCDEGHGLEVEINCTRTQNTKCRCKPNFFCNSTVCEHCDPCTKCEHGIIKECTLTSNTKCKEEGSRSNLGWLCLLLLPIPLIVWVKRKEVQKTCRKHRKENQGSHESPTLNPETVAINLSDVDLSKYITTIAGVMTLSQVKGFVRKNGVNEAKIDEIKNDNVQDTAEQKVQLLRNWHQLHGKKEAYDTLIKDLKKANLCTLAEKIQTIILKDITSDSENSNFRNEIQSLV", "experiment": "CD95 loss and immunoreactivity in ELANE-treated cancer cells", "assay_type": "cell-based", "design": "endogenous in cells; host or cells: Mel888 melanoma cells", "protocol": "ELANE lowers CD95 levels in cancer cells and reduced CD95 levels are associated with apoptosis. (FIG. 8A) Recombinant proteins (1 μg) corresponding to full length CD95 (FL-CD95), N-terminal domain of CD95 (amino acids 1-173; N-CD95), or C-terminal domain of CD95 (amino acids 157-320; C-CD95) were inbuated with ELANE (0.05 μg) or vehicle (Veh) for 2 hrs at 37° C. Degradation was assessed by SDS-PAGE followed by coomassie blue staining. […] (FIG. 8C) Cancer cells were treated with ELANE (50 nM) for 1 hr, fixed in 10% formalin, and stained with N- or C-terminal specific anti-CD95 antibodies (green). Hoechst 33342 solution was used for nuclear staining (blue). Images were taken under 40×.\nELANE selectively cleaves the C-terminal domain of CD95. The CD95 pathway is essential for the survival of a wide range of cancer cells, but largely dispensable for normal cell survival (Adachi et al., Nat. Genet., 1995; Karray et al., J. Immunol., 2004). CD95 function can be modulated by proteolysis (Strand et al., Oncogene, 2004). […] Degradation was assessed by SDS-PAGE followed by staining with coomassie blue. […] Mel888 cancer cells were treated with ELANE (50 nM) for various times, and CD95 degradation was assessed by western blot analysis with a C-terminal specific anti-CD95 antibody."}, "MDA-MB-231 cells": {"test_system": "MDA-MB-231 cells", "experiment": "ELANE inactivation by PMSF or A1AT and killing assay", "assay_type": "cell-based, human", "settings": "PMSF 100 nM or A1AT 42 nM for 30 mins; 24 hrs", "protocol": "(FIG. 5A) Purified native ELANE or PMN media was treated with PMSF (100 nM) or alpha-1-anti-trypsin (A1AT; 42 nM) for 30 mins and loss of ELANE catalytic activity was confirmed by a chromogenic substrate assay. Killing assays were performed by treating MDA-MB-231 cells for 24 hrs treatment and assessed by Calcein AM staining. (FIG. 5B) ELANE activity in PMN media was measured by a chromogenic substrate activity assay, and PMN killing was measured by Calcein AM staining on MDA-MB-231 cells exposed to PMN media for 4h."}}, "note": "Entries after “also recorded” stand apart in the source; their conditions may differ."}
{"molecule": "neutrophil elastase (protein, listed as Homo sapiens, purified native ELANE) MTLGRRLACLFLACVLPALLLGGTALASEIVGGRRARPHAWPFMVSLQLRGGHFCGATLIAPNFVMSAAHCVANVNVRAVRVVLGAHNLSRREPTRQVFAVQRIFENGYDPVNLLNDIVILQLNGSATINANVQVAQLPAQGRRLGNGVQCLAMGWGLLGRNRGIASVLQELNVTVVTSLCRRSNVCTLVRGRQAGVCFGDSGSPLVCNGLIHGIASFVRGGCASGLYPDAFAPVAQFVNWIDSIIQRSEDNPCPHPRDPDPASRTH", "values": [{"measurement": "tumor growth", "setting": "[1]", "value": "slows tumor growth"}, {"measurement": "C-CD95 levels in tumors", "setting": "tumors; 11.6 μg intratumorally once/day for 5 days, day 6", "value": "attenuates C-CD95 levels in vivo"}, {"measurement": "apoptosis in tumors", "setting": "tumors; intratumoral delivery, mouse cancer models", "value": "induces cancer cell apoptosis; also recorded: induced widespread apoptosis"}, {"measurement": "CD95 immunoreactivity of non-cancer cells", "setting": "CD95 [2]; 50 nM, 1 hr", "value": "loss of immunoreactivity with a C-terminal specific antibody"}, {"measurement": "uptake by non-cancer cells", "setting": "CD95 [2]; 100 nM, 30 mins", "value": "internalized by non-cancer cells"}, {"measurement": "CD95 immunoreactivity of cancer cells", "setting": "CD95 [3]; 50 nM, 1 hr", "value": "lose immunoreactivity to a C-terminal specific CD95 antibody, but not to an N-terminal specific CD95 antibody"}, {"measurement": "CD95 at the cell surface", "setting": "CD95 [3]; incubating cancer cells with ELANE", "value": "CD95 loss from the cell surface"}, {"measurement": "dependence of cancer cell killing on catalytic activity", "setting": "MDA-MB-231 cells", "value": "catalytic activity is required for its selective cancer cell killing"}]}
